Experimental data from the supplement of paper PMC7877785.
± gives the uncertainty stated by the source.

Test: self-splicing fitness, log relative to wild type (ln ratio); higher = more splicing; Tetrahymena group I intron in knt gene, E. coli kanamycin selection, DiMSum; sequences stand for … in CUCUCU…GGAGGGAAAAGUUAUCAGGCAUGCACCUGGUAGCUAGUCUUUAAACCAAUAGAUUGCAUCGGUUUAAAAGGCAAGACCGUCAAAUUGCGGGAAAGGGGUCAACAGCCGUUCAGUACCAAGUCUCAGGGGAAACUUUGAGAUGGCCUUGCAAAGGGUAUGGUAAUAAGCUGACGGACAUGGUCCUAACCACGCAGCCAAGUCCUAAGUCAACAGAUCUUCUGUUGAUAUGGAUGCAGUUCACAGACUAAAUGUCGGUCGGGGAAGAUGUAUUCUUCUCAUAAGAUAUAGUCGGACCUCUCCUUAAUGGGAGCUAGCGGAUGAAGUGAUGCAACACUGGAGCCGCUGGGAACUAAUUUGUAUGCGAAAGUAUAUUGAUUAGUUUUGGAGUACUCGUGGUCG
How it was run: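 Colonies from six replicate transformations of E. coli BL21(DE3) were pooled and amplicon-sequenced on an Illumina HiSeq 2500. The library placed an intron with all eight P1ex-region nucleotides randomised inside the knt kanamycin-resistance gene on pET-22b(+), and cells grew overnight at 37°C or 30°C on LB agar with or without 25 μg/mL kanamycin (plus 100 μg/mL carbenicillin, 50 μM IPTG, 0.2% rhamnose). Fitness is the DiMSum error-weighted combination of wild-type-normalised replicate fold changes, kanamycin versus none.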

Row | Sequence | self-splicing fitness (ln) (30 °C) | self-splicing fitness (ln) (37 °C)
1 | ACCCAGCAAUAUUACGCAAA | -1.21 ± 0.065 | -0.816 ± 0.068
2 | GCCGAGCAAUAUUACGCUCU | -0.992 ± 0.2 | -0.494 ± 0.21
3 | UACGAGCAAUAUUACGUGCC | -2.35 ± 0.29 | 
4 | UACUAGCAAUAUUACGCUAU | -2.8 ± 0.21 | -1.32 ± 0.16
5 | UCGCAGCAAUAUUACGCCAG | -2.63 ± 0.084 | -1.72 ± 0.1
6 | CGCAAGCAAUAUUACGCUGC | -2.59 ± 0.33 | -2.41 ± 0.3
7 | GUAAAGCAAUAUUACGCGGU | -2.79 ± 0.12 | -1.87 ± 0.15
8 | AUCGAGCAAUAUUACGGUAA | -2.41 ± 0.29 | -3.15 ± 0.35
9 | ACAUAGCAAUAUUACGGAGG | -3 ± 0.17 | -0.703 ± 0.15
10 | CUGUAGCAAUAUUACGACGA | -1.4 ± 0.19 | -0.118 ± 0.15
11 | GGACAGCAAUAUUACGAAUG | -2.09 ± 0.17 | -1.9 ± 0.22
12 | AGGCAGCAAUAUUACGACCU | -1.51 ± 0.14 | -1.28 ± 0.17
13 | UACCAGCAAUAUUACGUGGA | -2.89 ± 0.15 | -2.08 ± 0.12
14 | GCGGAGCAAUAUUACGUAUA |  | -2.2 ± 0.44
15 | AAAUAGCAAUAUUACGGGAC | -3.19 ± 0.29 | -1.57 ± 0.24
16 | AGAAAGCAAUAUUACGACGC | -0.72 ± 0.11 | -0.219 ± 0.14
17 | GGGGAGCAAUAUUACGACUA | -0.712 ± 0.24 | -0.539 ± 0.29
18 | GGCUAGCAAUAUUACGGUAC | -1.91 ± 0.17 | -0.733 ± 0.14
19 | UUACAGCAAUAUUACGAGUG | -1.16 ± 0.069 | -0.895 ± 0.079
20 | AUGCAGCAAUAUUACGGAAG | -3.07 ± 0.16 | -2.01 ± 0.2

Row | Sequence | self-splicing fitness (ln) (30 °C) | self-splicing fitness (ln) (37 °C)
21 | CACAAGCAAUAUUACGACAC | -3.12 ± 0.11 | -2.59 ± 0.12
22 | GUUUAGCAAUAUUACGUUCC | -0.783 ± 0.26 | 
23 | UCGAAGCAAUAUUACGCAUG | -1.2 ± 0.085 | -0.698 ± 0.1
24 | GCCUAGCAAUAUUACGAAAU | -2.34 ± 0.12 | -0.297 ± 0.13
25 | CACUAGCAAUAUUACGGCGC | -2.98 ± 0.15 | -1.11 ± 0.15
26 | GGCUAGCAAUAUUACGACCG | -0.745 ± 0.14 | -0.188 ± 0.21
27 | UUUAAGCAAUAUUACGGGCC |  | -2.57 ± 0.49
28 | AGCGAGCAAUAUUACGUGAC | -3.4 ± 0.28 | 
29 | UUGUAGCAAUAUUACGUGGU | -3.35 ± 0.3 | -3.67 ± 0.42
30 | GUUAAGCAAUAUUACGUGUC | -2.09 ± 0.089 | -0.788 ± 0.11
31 | GCGUAGCAAUAUUACGCAAG | -3.32 ± 0.41 | 
32 | CGUUAGCAAUAUUACGAUAG | -0.0326 ± 0.15 | -0.211 ± 0.14
33 | AGUCAGCAAUAUUACGAAGC | -3.56 ± 0.18 | -2.03 ± 0.17
34 | GAAAAGCAAUAUUACGGCGC | 0.706 ± 0.11 | 0.245 ± 0.18
35 | UUGAAGCAAUAUUACGGUCG | 0.0283 ± 0.088 | 0.283 ± 0.1
36 | CAUUAGCAAUAUUACGACAA | -2.37 ± 0.24 | -2.09 ± 0.32
37 | GAAGAGCAAUAUUACGUAAC | -1.31 ± 0.12 | -1.54 ± 0.21
38 | CUCAAGCAAUAUUACGACCG | -1.26 ± 0.12 | -0.638 ± 0.16
39 | AGACAGCAAUAUUACGAGAA | -2.15 ± 0.37 | -2.43 ± 0.31
40 | AUGUAGCAAUAUUACGUGGA | -1.58 ± 0.22 | -3.15 ± 0.24
